Experimental data reported in patent US20050154189A1 (MAXYGEN, published 2005).
Substitutions are numbered along the chain they refer to.

B1: Round 2 CD28BP-8 (ligand)
chain: ITPKSVTKRVKETVMLSCDYNTSTEELTSLRIYWQKDSKMVLAILPGKVQVWPEYKNRTITDMNDNPRIVILALRLSDSGTYTCVIQKPVLKGAYKLEHLASVRLMIRADFPVPSITDIGHPAPNVKRIRCSASGGFPEPRLAWMEDGEELNAVNTTVDQDLDTELYSVSSELDSNVTNNHSIVCLIKYGELSVSQIFPWSKPKQEPPIDQLPFWVIIPVSGALVLTAVVLYCLACRHVARWKRTRRNEETVGTERLSPIYLGSAQSSG
notes: also called clone CD28BP-8
B2: Round 1 CD28BP-71 (ligand)
chain: ITPKSVTKRVKETVMLSCDYNTSTEELTSLRIYWQKDSKMVLAILPGKVQVWPEYKNRTITDMNDNPRIVILALRLSDSGTYTCVIQKPVLKGAYKLEHLASVRLMIRADFPVPTINDLGNPSPNIRRLICSTSGGFPRPHLYWLENGEELNATNTTLSQDPETKLYMISSELDFNMTSNHSFLCLVKYGDLTVSQTFYWQESKPTPSANQHLTWTIIIPVSAFGISVIIAVILTCLTCRNAAIRRQRRENEVEMQSCSQSP
notes: also called R1clone71; Clone 71
B3: Round 2 CD28E8-6 (ligand)
chain: B2 chain with A101T, L158V, M177T
B4: Round 2 CD28D5-6 (ligand)
chain: B2 chain with N21S, A101T, T197S
B5: Round 2 CD28F3-1 (ligand)
chain: B2 chain with V90D, A101T, E149K
B6: Round 2 CD28B4-3 (ligand)
chain: B2 chain with A101T
B7: Round 2 CD28E2-5* (ligand)
chain: B2 chain with I1T, L76P
B8: Round 2 CD28B6-3 (ligand)
chain: B2 chain with V90D, A101T, E254K
B9: Round 1 CD28BP-126 (ligand)
chain: ITPKSVTKRVKETVMLSCDYSTSTEELTSLRIYWQKDSKMVLAILPGKVQVWPEYKNRTITDMNDNPRIVILALRLSDSGTYTCVIQKPDLKGAYKLEHLTSVRLMIRADFPVPTINDLGNPSPNIRRLICSTSGGFPRPHLYWLENGEELNATNTTVSQDPGTELYMISSELDFNVTNNHSIVCLIKYGELSVSQIFPWSKPKQEPPIDQLPFWVIIPVSGALVLTAVVLYCLACRHVARWKRTRRNEETVGTERLSPIYLGSAQSSG
notes: also called R1clone 126; Clone 126
B10: Round 2 CD28BP-5 (ligand)
chain: B9 chain with S79K, I86V, D90V
B11: Round 2 CD28BP-2 (ligand)
chain: B9 chain with D90V, T101A, V158L, G163E, E165K, C233R, L234P
B12: Round 2 CD28E9-6 (ligand)
chain: B9 chain with S21N, S79K, T101A
B13: Round 2 CD28C11-5 (ligand)
chain: B9 chain with S21N, D90V, V184A
B14: Round 2 CD28C6-1 (ligand)
chain: B9 chain with D90V, T101A, V239G
B15: Round 2 CD28BP-16 (ligand)
chain: B9 chain with S21N, D90V, T227A
B16: Round 2 CD28A6-9 (ligand)
chain: B9 chain with S21N, D90V, T101A, W215L
B17: Round 2 CD28A8-4 (ligand)
chain: B9 chain with S21N, D90V
B18: Round 2 CD28G2-8 (ligand)
chain: B9 chain with S21N, D90V, T101A, T115S
B19: Round 2 CD28A4-5* (ligand)
chain: B9 chain with S21N, D90V, V158L, G163E, E165K
B20: Round 2 CD28F8-4 (ligand)
chain: B9 chain with D90V, T101A, V158L, G163E, E165K
B21: Round 2 CD28A6-1 (ligand)
chain: B9 chain with S21N, D90V, T101A, G163E, E165K, W215R, V229I
B22: Round 2 CD28E2-4 (ligand)
chain: B9 chain with S79K, D90V, T101A
B23: Round 2 CD28H11-3 (ligand)
chain: B9 chain with S21N, D90V, T101A, V158L, G163E, E165K, V229A
B24: Round 2 CD28F7-2 (ligand)
chain: ITPKSVTKRVKETVMLSCDYSTSTEELTSLRIYWQKDSKMVLAILPGKVQVWPEYKNRTITDMNDNPRIVILALRLSDSGTYTCVIQKPVLKGAYKLEHLASVRLMIRADFPVPTINDLGNPSPNIRRLICSTSGGFPEPRLAWMEDGEELNAVNTTVDQDLDTELYSVSSELDFNVTNNHSIVCLIKYGELSVSQIFPWSKPKQEPPIDQLPFWVIIPVSGALVLTAVVLYCLACRHVARWKRTRRNEETVGTERLSPIYLGSAQSSG
B25: Round 2 CD28C8-6 (ligand)
chain: B9 chain with S21N, D90V, T101A, D174G
B26: Round 2 CD28E5-2 (ligand)
chain: B9 chain with S21N, T101A, V158L, G163E, E165K, H181R
B27: Round 2 CD28D8-9 (ligand)
chain: B9 chain with D90V
B28: Round 2 CD28BP-13 (ligand)
chain: B24 chain
B29: Round 2 CD28BP-4 (ligand)
chain: B9 chain with S21N, D90V, T101A, Y143C
B30: Round 2 CD28F3-6 (ligand)
chain: B9 chain with V158L, G163E, E165K
B31: Round 2 CD28D2-9 (ligand)
chain: B9 chain with S21N, D90V, V158L, G163E
B32: Round 2 CD28E10-6 (ligand)
chain: B9 chain with S21N, D90V, T101A, V158L, G163E
B33: Round 2 CD28B2-8 (ligand)
chain: B9 chain with S21N, S79K, D90V, T101A
B34: Round 2 CD28D10-4 (ligand)
chain: SGITPKSVTKRVKETVMLSCDYNTSTEELTSLRIYWQKDSKMVLAILPGKVQVWPEYKNRTITDMNDNPRIVILALRLSDKGTYTCVVQKNENGSFRREHLTSVTLSIRADFPVPSITDIGHPAPNVKRIRCSASGGFPEPRLAWMEDGEELNAVNTTVDQDLDTELYSVSSELDFNVTNNHSIVCLIKYGELSVSQIFPWSKPKQEPPIDQLPFWVIIPVSGALVLTAVVLYCLACRHVARWKRTRRNEETVGTERLSPIYLGSAQSSG
B35: Round 2 CD28A8-6 (ligand)
chain: B34 chain with L18P, N23S, K81S
B36: Round 2 CTLA4BP-5x2-11d (ligand)
chain: VIHVTKEVKEVATLSCGHNVSVEELAQTRIHWQKEKKMVLTMMSGDMNIWPEYKNRTIFDITNNLSIVILALRPSDEGTYECVVLKYEKDAFKREHLAEVMLSVKADFPTPSITDFEIPPSNIRRIICSTSGGFPEPHLFWLENGEELNAINTTVSQDPETELYTVSSKLDFNMTTDRSFVCLIKYGHLRVNQTFNWNTPKQEHFPDNLLPSWAITLISANGIFVICCLTYCFAPRCRERKSNETLRRESVRPV
B37: Round 2 CTLA4BP-5x2-10c (ligand)
chain: VIHVTKEVKEVATLSCGHNVSVEELAQTRIHWQKEKKMVLTMMSGDMNIWPEYKNRTIFDITNNLSIVILALRPSDEGTYECVVLKYEKDAFKREHLAEVMLSVKADFPTPSITDFEIPPSNIRRIICSTSGGFPEPHLSWLENGEELNAINTTVSQDPETELYTVSSKLDFNMTANHSFVCLIKYGHLRVNQTFNWNTPKQEHFPDNLLPSWAITLISVNGIFVICCLTYCFAPRCRERRNETLRRESVRPV

Target: T1, Soluble CD28-Ig (human, UniProt P10747 19-152, biotin-conjugated (NHS-biotin) in the labelled-ligand FACS assays)
T1 construct: extracellular domain; Bought from R&D Systems; also called sCD28-Ig; CD28-Ig Fc; not shown: Fc portion of human IgG1
Experiment: two-colour FACS profile on transfected cells; score of preference for CD28-Ig over CTLA-4-Ig vs WT hB7-1

Row | Binding Score | Binder
1 | 2 | B1
2 | 1 | B2
3 | 0 | B3
4 | 0 | B4
5 | 0 | B5
6 | 1 | B6
7 | 0 | B7
8 | 1 | B8
9 | 1 | B9
10 | 2 | B10
11 | 2 | B11
12 | 0 | B12
13 | 2 | B13
14 | 1 | B14
15 | 2 | B15
16 | 1 | B16
17 | 1 | B17
18 | 1 | B18

Row | Binding Score | Binder
19 | 1 | B19
20 | 1 | B20
21 | 1 | B21
22 | 1 | B22
23 | 1 | B23
24 | 2 | B24
25 | 2 | B25
26 | 0 | B26
27 | 1 | B27
28 | 2 | B28
29 | 2 | B29
30 | 0 | B30
31 | 1 | B31
32 | 1 | B32
33 | 1 | B33
34 | 0 | B34
35 | 1 | B35

Target: T2, Soluble CTLA-4-Ig (human, UniProt P16410 36-161, FITC-conjugated in the two-colour FACS assays; unlabelled and detected with FITC goat anti-human IgG in the concentration-dependent assay)
T2 construct: extracellular domain; Bought from R&D Systems; also called sCTLA-4-Ig; CTLA-4-Ig Fc; not shown: Fc portion of human IgG1
T2 sequence (P16410 36-161): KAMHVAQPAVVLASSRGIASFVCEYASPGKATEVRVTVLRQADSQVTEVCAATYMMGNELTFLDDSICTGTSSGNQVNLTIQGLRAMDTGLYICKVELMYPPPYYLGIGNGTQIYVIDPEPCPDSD
Experiment: two-colour FACS profile on transfected cells; score of preference for CTLA-4-Ig over CD28-Ig vs WT hB7-1

Row | Binding Score | Binder
36 | 2 | B36
37 | 2 | B37
